# From PMC11825297
# Molecular target: GST-tagged actin-binding domain of melanophilin (GST-Mlph-ABD), ATTO-488-labeled (UniProt Q91V27)
# Experiment: MST; ATTO-488-labeled GST-Mlph-ABD (diluted to 40 nM in MST buffer: 50 mM Tris-HCl pH 7.8, 100 mM NaCl, 10 mM MgCl2, 0.05% Tween-20) mixed 1:1 with a 16-step two-fold dilution series of the His-tagged Myo5a tail from 40 uM in His-tag protein dialysis buffer; Monolith NT.115; three repetitions
# UniProt Q91V27, sequence (Q91V27 401-590): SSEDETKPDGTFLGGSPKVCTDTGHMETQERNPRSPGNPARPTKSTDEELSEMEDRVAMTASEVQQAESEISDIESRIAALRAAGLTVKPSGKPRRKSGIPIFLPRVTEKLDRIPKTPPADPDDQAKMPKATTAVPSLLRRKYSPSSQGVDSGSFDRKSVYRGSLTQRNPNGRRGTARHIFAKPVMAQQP
substance,measurement,value
His-tagged middle tail domain of myosin-5a (His-Myo5a-MTD) (from UniProt Q99104 1-1853) (domain or fragment),Kd,562 nM
